Measurements published in the MegaScale stability set (Tsuboyama et al. 2023).

B1: 5KPH (parent)
chain: EEKRQVKQVAKEKLLEQSPNSKVQVRRVQKQGNTIRVELELRTNGKKENYTVEVERQGNTWTVKRITRT

Variants of: B1
Assay: folding stability dG (cDNA display proteolysis); higher = more stable
Settings: PBS, room temperature

Variant | folding stability dG [kcal/mol]
EEKRQVKQVAKEKLLEQSPNSKVQVRRVQKQGNTIRVELELRTNGKKENYTVEKERQGNTWTVKRITRT [V54K] | 1.28
EEKRQVKQVAKEKLLEQSPNSKVQVRRVQKQGNTIRVELELRTNGKKENYTVEHERQGNTWTVKRITRT [V54H] | 0.815
EEKRQVKQVAKEKLLEQSPNSKVQVRRVQKQGNTIRVELELRTNGKKENYTVENERQGNTWTVKRITRT [V54N] | 0.723
EEKRQVKQVAKEKLLEQSPNSKVQVRRVQKQGNTIRVELELRTNGKKENYTVEGERQGNTWTVKRITRT [V54G] | 1.44
EEKRQVKQVAKEKLLEQSPNSKVQVRRVQKQGNTIRVELELRTNGKKENYTVEAERQGNTWTVKRITRT [V54A] | 2.62
EEKRQVKQVAKEKLLEQSPNSKVQVRRVQKQGNTIRVELELRTNGKKENYTVECERQGNTWTVKRITRT [V54C] | 3.36
EEKRQVKQVAKEKLLEQSPNSKVQVRRVQKQGNTIRVELELRTNGKKENYTVEDERQGNTWTVKRITRT [V54D] | -0.632
EEKRQVKQVAKEKLLEQSPNSKVQVRRVQKQGNTIRVELELRTNGKKENYTVEFERQGNTWTVKRITRT [V54F] | 4.06
EEKRQVKQVAKEKLLEQSPNSKVQVRRVQKQGNTIRVELELRTNGKKENYTVEMERQGNTWTVKRITRT [V54M] | 3.85
EEKRQVKQVAKEKLLEQSPNSKVQVRRVQKQGNTIRVELELRTNGKKENYTVEYERQGNTWTVKRITRT [V54Y] | 2.94
EEKRQVKQVAKEKLLEQSPNSKVQVRRVQKQGNTIRVELELRTNGKKENYTVERERQGNTWTVKRITRT [V54R] | 0.035
EEKRQVKQVAKEKLLEQSPNSKVQVRRVQKQGNTIRVELELRTNGKKENYTVEEERQGNTWTVKRITRT [V54E] | 1.33
EEKRQVKQVAKEKLLEQSPNSKVQVRRVQKQGNTIRVELELRTNGKKENYTVELERQGNTWTVKRITRT [V54L] | 3.94
EEKRQVKQVAKEKLLEQSPNSKVQVRRVQKQGNTIRVELELRTNGKKENYTVETERQGNTWTVKRITRT [V54T] | 2.23
EEKRQVKQVAKEKLLEQSPNSKVQVRRVQKQGNTIRVELELRTNGKKENYTVESERQGNTWTVKRITRT [V54S] | 1.63
EEKRQVKQVAKEKLLEQSPNSKVQVRRVQKQGNTIRVELELRTNGKKENYTVEIERQGNTWTVKRITRT [V54I] | 3.92
EEKRQVKQVAKEKLLEQSPNSKVQVRRVQKQGNTIRVELELRTNGKKENYTVEQERQGNTWTVKRITRT [V54Q] | 0.909
EEKRQVKQVAKEKLLEQSPNSKVQVRRVQKQGNTIRVELELRTNGKKENYTVEWERQGNTWTVKRITRT [V54W] | 2.75
EEKRQVKQVAKEKLLEQSPNSKVQVRRVQKQGNTIRVELELRTNGKKENYTVEVEKQGNTWTVKRITRT [R56K] | 4.11
EEKRQVKQVAKEKLLEQSPNSKVQVRRVQKQGNTIRVELELRTNGKKENYTVEVEPQGNTWTVKRITRT [R56P] | 2.93
EEKRQVKQVAKEKLLEQSPNSKVQVRRVQKQGNTIRVELELRTNGKKENYTVEVEWQGNTWTVKRITRT [R56W] | 4.17
EEKRQVKQVAKEKLLEQSPNSKVQVRRVQKQGNTIRVELELRTNGKKENYTVEVEMQGNTWTVKRITRT [R56M] | 3.61
EEKRQVKQVAKEKLLEQSPNSKVQVRRVQKQGNTIRVELELRTNGKKENYTVEVECQGNTWTVKRITRT [R56C] | 3.59
EEKRQVKQVAKEKLLEQSPNSKVQVRRVQKQGNTIRVELELRTNGKKENYTVEVEAQGNTWTVKRITRT [R56A] | 3.25
EEKRQVKQVAKEKLLEQSPNSKVQVRRVQKQGNTIRVELELRTNGKKENYTVEVELQGNTWTVKRITRT [R56L] | 3.84
EEKRQVKQVAKEKLLEQSPNSKVQVRRVQKQGNTIRVELELRTNGKKENYTVEVEDQGNTWTVKRITRT [R56D] | 2.42

Variant | folding stability dG [kcal/mol]
EEKRQVKQVAKEKLLEQSPNSKVQVRRVQKQGNTIRVELELRTNGKKENYTVEVEIQGNTWTVKRITRT [R56I] | 3.29
EEKRQVKQVAKEKLLEQSPNSKVQVRRVQKQGNTIRVELELRTNGKKENYTVEVENQGNTWTVKRITRT [R56N] | 2.97
EEKRQVKQVAKEKLLEQSPNSKVQVRRVQKQGNTIRVELELRTNGKKENYTVEVEGQGNTWTVKRITRT [R56G] | 3.19
EEKRQVKQVAKEKLLEQSPNSKVQVRRVQKQGNTIRVELELRTNGKKENYTVEVEVQGNTWTVKRITRT [R56V] | 3.24
EEKRQVKQVAKEKLLEQSPNSKVQVRRVQKQGNTIRVELELRTNGKKENYTVEVEYQGNTWTVKRITRT [R56Y] | 3.72
EEKRQVKQVAKEKLLEQSPNSKVQVRRVQKQGNTIRVELELRTNGKKENYTVEVEEQGNTWTVKRITRT [R56E] | 2.88
EEKRQVKQVAKEKLLEQSPNSKVQVRRVQKQGNTIRVELELRTNGKKENYTVEVEQQGNTWTVKRITRT [R56Q] | 3.51
EEKRQVKQVAKEKLLEQSPNSKVQVRRVQKQGNTIRVELELRTNGKKENYTVEVETQGNTWTVKRITRT [R56T] | 2.83
EEKRQVKQVAKEKLLEQSPNSKVQVRRVQKQGNTIRVELELRTNGKKENYTVEVEFQGNTWTVKRITRT [R56F] | 3.83
EEKRQVKQVAKEKLLEQSPNSKVQVRRVQKQGNTIRVELELRTNGKKENYTVEVESQGNTWTVKRITRT [R56S] | 3.26
EEKRQVKQVAKEKLLEQSPNSKVQVRRVQKQGNTIRVELELRTNGKKENYTVEVEHQGNTWTVKRITRT [R56H] | 3.38
EEKRQVKQVAKEKLLEQSPNSKVQVRRVQKQGNTIRVELELRTNGKKENYTVEVWRQGNTWTVKRITRT [E55W] | 3.92
EEKRQVKQVAKEKLLEQSPNSKVQVRRVQKQGNTIRVELELRTNGKKENYTVEVCRQGNTWTVKRITRT [E55C] | 3.34
EEKRQVKQVAKEKLLEQSPNSKVQVRRVQKQGNTIRVELELRTNGKKENYTVEVFRQGNTWTVKRITRT [E55F] | 3.92
EEKRQVKQVAKEKLLEQSPNSKVQVRRVQKQGNTIRVELELRTNGKKENYTVEVHRQGNTWTVKRITRT [E55H] | 3.65
EEKRQVKQVAKEKLLEQSPNSKVQVRRVQKQGNTIRVELELRTNGKKENYTVEVIRQGNTWTVKRITRT [E55I] | 4.11
EEKRQVKQVAKEKLLEQSPNSKVQVRRVQKQGNTIRVELELRTNGKKENYTVEVGRQGNTWTVKRITRT [E55G] | 3.19
EEKRQVKQVAKEKLLEQSPNSKVQVRRVQKQGNTIRVELELRTNGKKENYTVEVTRQGNTWTVKRITRT [E55T] | 3.7
EEKRQVKQVAKEKLLEQSPNSKVQVRRVQKQGNTIRVELELRTNGKKENYTVEVSRQGNTWTVKRITRT [E55S] | 3.56
EEKRQVKQVAKEKLLEQSPNSKVQVRRVQKQGNTIRVELELRTNGKKENYTVEVDRQGNTWTVKRITRT [E55D] | 3.2
EEKRQVKQVAKEKLLEQSPNSKVQVRRVQKQGNTIRVELELRTNGKKENYTVEVPRQGNTWTVKRITRT [E55P] | -0.38
EEKRQVKQVAKEKLLEQSPNSKVQVRRVQKQGNTIRVELELRTNGKKENYTVEVYRQGNTWTVKRITRT [E55Y] | 3.92
EEKRQVKQVAKEKLLEQSPNSKVQVRRVQKQGNTIRVELELRTNGKKENYTVEVLRQGNTWTVKRITRT [E55L] | 3.54
EEKRQVKQVAKEKLLEQSPNSKVQVRRVQKQGNTIRVELELRTNGKKENYTVEVVRQGNTWTVKRITRT [E55V] | 4.08
EEKRQVKQVAKEKLLEQSPNSKVQVRRVQKQGNTIRVELELRTNGKKENYTVEVMRQGNTWTVKRITRT [E55M] | 3.88
EEKRQVKQVAKEKLLEQSPNSKVQVRRVQKQGNTIRVELELRTNGKKENYTVEVQRQGNTWTVKRITRT [E55Q] | 3.7

Variant | folding stability dG [kcal/mol]
EEKRQVKQVAKEKLLEQSPNSKVQVRRVQKQGNTIRVELELRTNGKKENYTVEVARQGNTWTVKRITRT [E55A] | 3.45
EEKRQVKQVAKEKLLEQSPNSKVQVRRVQKQGNTIRVELELRTNGKKENYTVEVRRQGNTWTVKRITRT [E55R] | 3.1
EEKRQVKQVAKEKLLEQSPNSKVQVRRVQKQGNTIRVELELRTNGKKENYTVEVNRQGNTWTVKRITRT [E55N] | 2.91
EEKRQVKQVAKEKLLEQSPNSKVQVRRVQKQGNTIRVELELRTNGKKENYTVEVKRQGNTWTVKRITRT [E55K] | 3.19
EEKRQVKQVAKEKLLEQSPNSKVQVRRVQKQGNTIRVELELRTNGKKENYTVVVERQGNTWTVKRITRT [E53V] | 3.94
EEKRQVKQVAKEKLLEQSPNSKVQVRRVQKQGNTIRVELELRTNGKKENYTVSVERQGNTWTVKRITRT [E53S] | 3.33
EEKRQVKQVAKEKLLEQSPNSKVQVRRVQKQGNTIRVELELRTNGKKENYTVRVERQGNTWTVKRITRT [E53R] | 2.69
EEKRQVKQVAKEKLLEQSPNSKVQVRRVQKQGNTIRVELELRTNGKKENYTVWVERQGNTWTVKRITRT [E53W] | 4.23
EEKRQVKQVAKEKLLEQSPNSKVQVRRVQKQGNTIRVELELRTNGKKENYTVYVERQGNTWTVKRITRT [E53Y] | 4.21
EEKRQVKQVAKEKLLEQSPNSKVQVRRVQKQGNTIRVELELRTNGKKENYTVTVERQGNTWTVKRITRT [E53T] | 3.62
EEKRQVKQVAKEKLLEQSPNSKVQVRRVQKQGNTIRVELELRTNGKKENYTVQVERQGNTWTVKRITRT [E53Q] | 3.39
EEKRQVKQVAKEKLLEQSPNSKVQVRRVQKQGNTIRVELELRTNGKKENYTVEVERKGNTWTVKRITRT [Q57K] | 3.83
EEKRQVKQVAKEKLLEQSPNSKVQVRRVQKQGNTIRVELELRTNGKKENYTVEVERCGNTWTVKRITRT [Q57C] | 3.53
EEKRQVKQVAKEKLLEQSPNSKVQVRRVQKQGNTIRVELELRTNGKKENYTVEVERFGNTWTVKRITRT [Q57F] | 3.88
EEKRQVKQVAKEKLLEQSPNSKVQVRRVQKQGNTIRVELELRTNGKKENYTVEVERHGNTWTVKRITRT [Q57H] | 3.82
EEKRQVKQVAKEKLLEQSPNSKVQVRRVQKQGNTIRVELELRTNGKKENYTVEVERLGNTWTVKRITRT [Q57L] | 3.96
EEKRQVKQVAKEKLLEQSPNSKVQVRRVQKQGNTIRVELELRTNGKKENYTVEVERIGNTWTVKRITRT [Q57I] | 4.25
EEKRQVKQVAKEKLLEQSPNSKVQVRRVQKQGNTIRVELELRTNGKKENYTVEVERGGNTWTVKRITRT [Q57G] | 3.16
EEKRQVKQVAKEKLLEQSPNSKVQVRRVQKQGNTIRVELELRTNGKKENYTVEVERDGNTWTVKRITRT [Q57D] | 4.07
EEKRQVKQVAKEKLLEQSPNSKVQVRRVQKQGNTIRVELELRTNGKKENYTVEVERMGNTWTVKRITRT [Q57M] | 3.89
EEKRQVKQVAKEKLLEQSPNSKVQVRRVQKQGNTIRVELELRTNGKKENYTVEVERAGNTWTVKRITRT [Q57A] | 3.81
EEKRQVKQVAKEKLLEQSPNSKVQVRRVQKQGNTIRVELELRTNGKKENYTVEVERSGNTWTVKRITRT [Q57S] | 3.89
EEKRQVKQVAKEKLLEQSPNSKVQVRRVQKQGNTIRVELELRTNGKKENYTVEVERNGNTWTVKRITRT [Q57N] | 3.9
EEKRQVKQVAKEKLLEQSPNSKVQVRRVQKQGNTIRVELELRTNGKKENYTVEVEREGNTWTVKRITRT [Q57E] | 4.17
EEKRQVKQVAKEKLLEQSPNSKVQVRRVQKQGNTIRVELELRTNGKKENYTVEVERPGNTWTVKRITRT [Q57P] | 2.19
EEKRQVKQVAKEKLLEQSPNSKVQVRRVQKQGNTIRVELELRTNGKKENYTVEVERRGNTWTVKRITRT [Q57R] | 3.73
